In patent publication US20050287132A1, “Biliverdin reductase fragments and variants, and methods of using biliverdin reductase and such fragments and variants” (University of Rochester, priority 1999, published 2005):
Numbering of substitutions follows the chain as printed.

B1: Lys^296 mutant: hBVR with Lys^296→Ala at the C terminus within a substrate binding domain (protein, UniProt P53004 3-296, looked up, variant K296A)
Biliverdin reductase A: AEPERKFGVVVVGVGRAGSVRMRDLRNPHPSSAFLNLIGFVSRRELGSIDGVQQISLEDALSSQEVEVAYICSESSSHEDYIRQFLNAGKHVLVEYPMTLSLAAAQELWELAEQKGKVLHEEHVELLMEEFAFLKKEVVGKDLLKGSLLFTAGPLEEERFGFPAFSGISRLTWLVSLFGELSLVSATLEERKEDQYMKMTVCLETEKKSPLSWIEEKGPGLKRNRYLSFHFKSGSLENVPNVGVNKNIFLKDQNIFVQKLLGQFSEKELAAEKKRILHCLGLAEEIQKYCCSRA
B2: NLS mutant: hemagglutinin tagged hBVR with amino acids 222-227 changed from GLKRNR to VIGSTG (SEQ. ID. No. 25) (protein, UniProt P53004 3-296, looked up, variant G222V L223I K224G R225S N226T R227G)
Biliverdin reductase A: B1 Biliverdin reductase A with G220V, L221I, K222G, R223S, N224T, R225G, A294K
modifications: hemagglutinin tag
B3: Gly^17: hBVR SEQ. ID. No. 1 with Gly^17→Ala within the nucleotide binding domain (protein, listed as Homo sapiens)
chain: MNAEPERKFGVVVVGVARAGSVRMRDLRNPHPSSAFLNLIGFVSRRELGSIDGVQQISLEDALSSQEVEVAYICSESSSHEDYIRQFLNAGKHVLVEYPMTLSLAAAQELWELAEQKGKVLHEEHVELLMEEFAFLKKEVVGKDLLKGSLLFTSDPLEEDRFGFPAFSGISRLTWLVSLFGELSLVSATLEERKEDQYMKMTVCLETEKKSPLSWIEEKGPGLKRNRYLSFHFKSGSLENVPNVGVNKNIFLKDQNIFVQKLLGQFSEKELAAEKKRILHCLGLAEEIQKYCCSRK
B4: wild type: wild type human biliverdin reductase, SEQ. ID. No. 1; E. coli expressed or purified from human kidney (protein, listed as Homo sapiens)
chain: B3 chain with A17G
B5: Ser^149: hBVR SEQ. ID. No. 1 with Ser^149→Ala within the kinase motif of the leucine zipper (protein, listed as Homo sapiens)
chain: B3 chain with A17G, S149A

Assays:
[1] = Biliverdin reductase catalytic activity of recombinant wild type and mutant hBVR (Example 2, FIG. 3); type: biochemical, human
Description: FIGS. 3A-C are graphs depicting the effects of mutation of Gly^17, Ser^149, and Lys^296 on BVR catalytic activity. Purified preparations of recombinant wild type and mutant BVR with substitution of Gly^17 (FIG. 3A), Ser^149 (FIG. 3B), or Lys^296 (FIG. 3C) with Ala were assessed for BVR activity at pH 6.5 using NADH as cofactor and at pH 8.7 with NADPH as cofactor. Values presented are in percent wild type activity for each pH. The specific activity of the wild type preparation was 1744 nmol bilirubin produced min^−1 mg^−1 at pH 6.5 and 1147 nmol bilirubin produced min^−1 mg^−1 at pH 8.7. Values presented are representative of 2-4 determinations.
GST-BVR fusion proteins were prepared as described in Example 1. Human kidney biliverdin reductase was purified to homogeneity as described by Maines et al., Arch. Biochem. Biophys. 300:320-326 (1993), which is hereby incorporated by reference. The purified reductase preparations were judged to be homogenous by SDS-PAGE. Protein concentration was determined by the method of Bradford, Anal. Biochem. 72:248-254 (1976), which is hereby incorporated by reference.
Activity was determined as previously described by Huang et al., J. Biol. Chem. 264:7844-7849 (1989), which is hereby incorporated by reference, using NADPH as the cofactor at pH 8.7 in 0.1 M […] or NADH at pH 6.5 in […]. The rate of activity was measured as the increase in 450 nm absorbance at 25° C. Specific activity is expressed in units/mg protein, where 1 unit catalyzes the formation of 1 nmol bilirubin/min.

biliverdin reductase [2] = experiment: Phosphorylation state of hBVR, SDS-PAGE immunoblot with anti-phospho antibodies; type: biochemical, human; conditions: for autophosphorylation activity: anti-phospho mix blot, corrected for protein loading
Description: (§1) Purified protein was subjected to 12.5% SDS-PAGE and the protein transferred to PVDF membrane. The membrane was subsequently treated as for Western blotting, using anti-phosphoserine, anti-phosphotyrosine or anti-phosphothreonine, at 2 μg/ml, or a mixture of all three antibodies as the primary antibody. The secondary antibody was goat anti-rabbit horseradish peroxidase at a 1:1000 dilution and detection was carried out using the ECL reagent kit (NEN Life Sciences) according to the manufacturer's instructions.

HeLa cells = experiment: Nuclear translocation of hemagglutinin-tagged BVR constructs after 8-bromo-cGMP, immunofluorescence; type: cell-based, human; conditions: 500 μM 8-bromo-cGMP, 5 min (up to 60 min)
Description: HeLa cells were grown on glass cover slips in DMEM medium containing 10% FBS under an atmosphere of 5% CO2. Cells were transfected with different BVR constructs using Lipofectamine, as described by the manufacturer. Briefly, cells were treated with a mixture of 2 μg DNA and 20 μl Lipofectamine for 5 h followed by the addition of DMEM medium. After 48 h, cells were treated with 500 μM 8-bromo-cGMP for 5, 20 or 60 min, fixed with 4% paraformaldehyde for 10 min. Cells were then rinsed with phosphate-buffered saline, incubated with 5% goat serum to block nonspecific binding sites and then with monoclonal anti hemagglutinin primary antibody and FITC conjugated secondary antibody. Cells were visualized by direct fluorescence microscopy.

[3] = Biliverdin reductase activity of E. coli expressed hBVR wild type and mutants (Example 1); type: biochemical, human; conditions: for Activity (nmol bilirubin/min/mg) pH 6.7 + NADH: pH 6.7, NADH cofactor; for Activity (nmol bilirubin/min/mg) pH 6.7 + NADH / Activity (nmol bilirubin/min/mg) pH 8.7 + NADPH: 25°; for Activity (nmol bilirubin/min/mg) pH 8.7 + NADPH: pH 8.7, NADPH cofactor
Description: SalI linkers are underlined in each primer. The products were digested with SalI and cloned into the vector pGEX 4T-2. Orientation was determined by restriction analysis and confirmed by sequencing. The ligation places the BVR coding region in frame with the GST protein of the vector. GST-BVR fusion proteins were purified from bacterial clones containing the plasmid, and grown overnight using a glutathione-sepharose 4B column (Pharmacia). The reductase portion of the fusion protein was released by thrombin protease treatment.
Activity was determined as previously described (Kutty et al., J. Biol. Chem. 256:3956-3962 (1981); Huang et al., J. Biol. Chem. 264:7844-7849 (1989), which are hereby incorporated by reference). Activity was determined in a 1 ml assay volume that contained 0.1 M Tris/HCl, pH 8.7 NADPH (100 μM), and biliverdin (5 μM). Reductase activity was also measured using NADH (1 mM) as the cofactor; in this case 0.1 M potassium phosphate pH 6.75, was substituted for Tris/HCl. SDS/PAGE was performed by the method of Laemmli, Nature 227:680-685 (1970), which is hereby incorporated by reference. Western blot analysis was performed using anti-serum to human kidney biliverdin reductase as previously described (Maines et al., Arch. Biochem. Biophys. 300:320-326 (1993), which is hereby incorporated by reference). The relative amounts of immunoreactive protein were determined by scanning the blot using a laser densitometer and comparing the area under the peak for each mutant with the wild type. The rate of activity was measured as the increase in 450 nm absorbance at 25° C. Specific activity is expressed as nmol bilirubin/min/ mg protein.

biliverdin reductase [4] = target: T1, biliverdin reductase (Homo sapiens, UniProt P53004, A154S/E160D/G155D/G17A); experiment: Phosphorylation state of hBVR, SDS-PAGE immunoblot with anti-phospho antibodies; type: biochemical; conditions: versus wild type
T1 construct: used to amplify the full-length cDNA by PCR as described in purification of cloned reductase; GST (N, cleaved yes); made in house; host or cells: E. coli
T1 sequence (P53004 1-296 G17A/A154S/G155D/E160D): B3 chain
Description: as §1

Molecule	BVR catalytic activity versus wild type ([1]; pH 6.5, NADH)	BVR catalytic activity versus wild type ([1]; pH 8.7, NADPH)	autophosphorylation activity (biliverdin reductase [2])	nuclear localization in response to 8-bromo-cGMP (HeLa cells)	Activity (nmol bilirubin/min/mg) pH 6.7 + NADH [3]	reductase activity relative to the control (wild type) ([3]; pH 6.7 with NADH)	Activity (nmol bilirubin/min/mg) pH 8.7 + NADPH [3]	further results
B1	doubling of activity	doubling of activity	essentially comparable to that of the wild type protein					
B2				not detected				
B3	essentially inactive	essentially inactive			698 nmol bilirubin/min/mg	20-25%	0 nmol bilirubin/min/mg	reductase activity relative to the control (wild type) ([3]; pH 8.7 with NADPH): inactive; reduction in phosphorylation (biliverdin reductase [4]; anti-phospho mix, laser densitometry): approximately 50%; reduction of phosphoserine signal (biliverdin reductase [4]; anti-phosphoserine): approximately 50%; reduction in phosphothreonine signal (biliverdin reductase [4]; anti-phosphothreonine): not evident; reduction of phosphotyrosine signal (biliverdin reductase [4]; anti-phosphotyrosine): approximately 50%
B4				strong punctate staining associated with the nucleus	2830 nmol bilirubin/min/mg		1338 nmol bilirubin/min/mg	Activity % pH 6.7 + NADH ([3]; Cys→Ala mutations, wild type = 100, pH 6.7, NADH): 100%; Activity % pH 8.7 + NADPH ([3]; Cys→Ala mutations, wild type = 100, pH 8.7, NADPH): 100%; specific activity ([1]; pH 6.5, NADH): 1744 nmol bilirubin produced min^−1 mg^−1; specific activity ([1]; pH 8.7, NADPH): 1147 nmol bilirubin produced min^−1 mg^−1; phosphorylation state (biliverdin reductase [2]; protein purified from human kidney, anti-phospho mix): phosphoprotein
B5	essentially inactive	essentially inactive	essentially comparable to that of the wild type protein		0 nmol bilirubin/min/mg	inactive	231 nmol bilirubin/min/mg	reductase activity relative to the control (wild type) ([3]; pH 8.7 with NADPH, listed as Ser^149 mutant): minimal activity
